Results taken from the supplement of paper PMC12636428.

Test system: Saccharomyces cerevisiae
Assay: transcriptional activation domain activity (GFP:mCherry ratio, weighted mean of sorted bins, harmonized to initial dataset scale) (arbitrary fluorescence ratio units); higher = stronger transcriptional activation
Conditions: beta-estradiol 1 µM; induction time 4 h
Outline: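 The activation activity of each tile is the read-weighted mean of bin median fluorescence, averaged across its barcodes and mapped linearly onto the scale of the initial dataset. Tiles were fused to an estradiol-inducible synthetic transcription factor, barcoded, and integrated at URA3 in yeast diploids carrying a GFP reporter. Induction used 1 uM beta-estradiol in SC for 4 hours at 30 °C, after which cells were sorted into 8 GFP:mCherry bins, and any tile with fewer than 50 reads was dropped.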

| Sequence | transcriptional activation domain activity |
| --- | --- |
| GMHSGDGEFVPFYAPVVVEGPVEAWLLEIEATMRVTLRKLLLGCILALKKAKK | 61300 |
| LFSCCCLLRTLGRFLLFIIFFPSLSTCSFFYFLVLFLFSFQTYFLLYLYLLSI | 43800 |
| GREGKKHRDRDGSSRGSSSKEKRRERSDGKKHREKSEGGKHREGRSREGRRED | 44700 |
| RWCARCMLLTATIHMGYFFSAWAPYDYIGYQLKNNKIVWKGLAAWCTLVWIVF | 47700 |
| SVGASSGSGSGSGKRRGEEGEEGDEGEEGEEGDEGEEGDEEEGVEELVQGEGQ | 7800 |
| NLLDFRKILVNVVCILVVDVVLLMSMLIGLLRYSHRNSTGLWHLLYQQCIIWL | 45000 |
| ASASASASRHKKDKDRKKKHKEKDGKSSKHKKHKSSSRRSRSRSRDKDRHGDR | 33300 |
| KVVQQFCGCHSRAANGCSGDELLRQYDYDEEDTVSSNRRFANETCRVAVLTVR | 65900 |
| MILWARAWISLFLFLYLLFYLFVFSLDIPPFLLYTFFIFILLLCVFACTYRHK | 49200 |
| FKEGVSLTVLDELYRWQKYAYGCDEIIFNPIFTWWKKGPISLQLRNFVWSIAP | 57100 |
| SRIRAKRIYTKLNLFFRSAFLSYTDFKQTIIVLVSLLKLSLNLWDIVKLMCPQ | 47400 |
| LLLFNDEYTHIWSTPSFALKWIYLFARYFPLLFQSTSYYLLTHILSRPPISWS | 61800 |
| YGCNELIFNPLIDWWRKGPITRQLRTFMWSDAPLHYKIGMLSYMFSYYALSGA | 36300 |
| CFAMVQQIFAKLLIMFEPRLDIPLLKFYTLLYRSVYYAICRRQQLYQEDMIAA | 57700 |
| QLALFRWCAKMCGDVLSARDLVILGCRILLRCLRSYAWDFLFGHLLFALRLVR | 72000 |
| MPPTSSSVSRSSFSRGRTSSCRPRYSSSRPTSSSTSGSSRRTARSSPSASPRS | 11000 |
| GLQGQYNAYSTKHNINVPHGDILVFSLACGQIMYAWLMRPDTLPISYSNWICN | 39300 |
| NMDQLDSVHNLNDDDLQQLLEDLGNIDHSDEKLWKEITDQAMWLGNTMDPTAA | 149000 |
| MLPRQRHSFWSVVTYLIMYYIIMYAFLYGIKYTHWIYFLSNHLVMWLLLLHFL | 41100 |
| NNCVGYFNYCHFIRLIVYANITTIYIFVLLCCRAHQIIFIQSASLEVGFLCVN | 66500 |
| MFWLTLLPSPCFTFFALCYKFFSFLVSIEFFKSCFLPLPTVSPNLLSSLALLL | 63800 |

| Sequence | transcriptional activation domain activity |
| --- | --- |
| HFILTGSDLGWVLVYFDYDDRIYIFLMEWCKLNCYWIILMYIWNILPTALLLQ | 34300 |
| MPPAPKSPQARRAGAPKAKGAVRAKSGCYTCRIRRKKCDEQMNPEGSCSTCVR | 37400 |
| YPLLVCLLDLVKNNSLDDTGWLIGLGCTLWYENSIYIVRKAMELCLRAQEKID | 52000 |
| MFLYSHPPLHPNVFLPPPSLFICTMLQLVFYRPSSVYLLLLLFWIYPPLFLLC | 56400 |
| ALGLPARPVSHHILIAIPSGLPLRTHELFMQLLFEHLHLSAVMLVDRSIAQTY | 55300 |
| MSCLDWNVFVFFFYLSILIFRLITHHYLSVFDLFFLYPFFLFLFTFPPTSFLL | 49500 |
| HRVSMFLGYNPGNIVSNCRRCLDQWGPDILIHPSRIYLVVLPWLPPFFRKQLR | 56400 |
| VVVYCKSIDLLFRVALYLWRSPAVIAWISFAARQARVIVATVVFGLGINRADI | 69400 |
| PPPPPPPGAMGGLPPPPPPPPPPPGGPGGGPPPPPPPPPGGPGGPPPPPPPPG | 35100 |
| RPSSPPRRPPPSSPSPAPPSKSPATCRSKTSPWGHGRCRPRPPARAPASGTAP | 45200 |
| LTNLNEIDFTNMFCNDNFIQNYNQGLMELLTEPTPGPSSSSCILPSTPTRPLS | 83000 |
| RQLVLLQKAEVDLFYMTVALILICALCAGLCLNIAIQARGTTLLTNWTQLEFC | 58300 |
| FLNRYLGLLGNIPVILEFFGNFTEHMFVFAFCFWLAFTQLVVIALLIIRTYAL | 65900 |
| AQEAIAEQGEERGDGAGQEKAPVGKRAAEDPAAAPRGSAKRKADKGERSGAEQ | 7850 |
| VFRLYFYLLYFIFYRNLFARLRNWEQYTLIQVASSVWVIIFYPLRMTRTTHGL | 65900 |
| MWWAFIFFFLLSFFLFLLFLGWLAGWQVCCWGFWFLVGFHFGWLGWFGCGITS | 32000 |
| NRKTIGKQDPYCAARLGKEAKKTETDRRGGQTPRWDQEMRFTVHDSPDYYQLK | 21000 |
| KSPEKEATKDGDGKPEGTTGTGRGRGRGRGRGGGRGRGRGRGGAVAEKGSYKA | < 6570 |
| IRLMPFYSSPNVDVAEENLRCYENTAVFLLSNFQYLIVALVYCDGEPYRENIS | 41000 |
| ATHPDYIDPHNAMDYLSNDGGDSYNLCHFWSNFEIADMDFWRSDAYQAFFDFL | 150000 |
| SPKMYESFLRIDLRNLEVRVLGMGATTSDVRLANIVVQYLVKGWLPQTAYATL | 71200 |

| Sequence | transcriptional activation domain activity |
| --- | --- |
| EVKLEEAEATGASVKRKSRKSKIETDIADGADNEATPSGSRRRGRPRKSQPDP | 59400 |
| MPHTHLIFESCFFIVFSPNDLLTTDYLFFLPFPFPFPFPFLFPFPFLFPFLFL | 63100 |
| MRRLGWVGVSGLVSFLFTSFFFLVSFFLLLLLLLLTHFSFLFFFFAFTFILMM | 45500 |
| SSQPTKKPTPTTTTTTTTTTTTTTTTTTTTTEKPHTTHHTTHTTTTTTTKKAE | 36700 |
| LGGLSRERFFVYVFTSAFLWYFFPGYLFLALSWFSWVTWIWPDDPVVSQLFGY | 39500 |
| IQDLVFSIIGWFCFGGYTGYNIIQYVNMFGFAEWRRTLPVLYQLMYFNVWMSL | 62900 |
| ASTETPLPVPKRRGRPPKNNNAAGIVVFDGGEEAPAVKKRGRPKKVTEPVAST | 23100 |
| NSTIPLDFMPRDALHGFDWSEEDDMSDGLPFLKTDPNNNGFFGDGSLLCILRS | 109000 |
| SDDETSRSHKKSSRRDTSQDDAERGRHHHKSSRHKGERDRHHKIRSRSRSPAR | 13900 |
| LLKYAEWLIKPEQNNGSWVADVLWPVLNLDLQWISSHWNESSWDLWWPPIWGG | 32400 |
| LFGCVVSNVNGSSYLGLVYVIFMLYEGGLLLAMIKWRISTWIIYYICAFCLSL | 59600 |
| IHILASIPSEFWKLLILSFFEKFRSNIYHTLFYRFIYLNRGFILLLLNQLRLI | 48100 |
| MCGGSFSLHRLHFFFIYVCFFCFVLSCLFTLAYWVVLYYARLVMGFWWFWWFG | 58300 |
| GASSSAAAAGSSEEAPKKKRGRPPKEKKADESGAETEPAPKRKRGRPPKNPKP | 21200 |
| YYAECCTHTGNAHKVQRKMLNPVFTTKHMKARMWYQFMLLFLKEALMNELKGY | 14300 |
| SIRVILLNLGLSNGLETIPYGLISIIYQSKYQSFAYTLLFFSNLFTYSLWYVV | 61200 |
| MKLVCHSLQLHFLSILVLEDLLIATLRVAQSCITAFFWRNHFSFTCLCLLTML | 63200 |
| RLGEEKRSKSTEEAPREESEEAESTKKASGKSESAGEEKTKEEGEEGEGKKEG | 30800 |
| MFLSTVMTRSICTFIFVEFELHGDAKSLCCGGLCRFCRLCSKVGVNYYSPCWW | 73000 |
| GPTIRHKMNLFHVYGRRNPHLRLMISLIYVWMRSWGVKEMSPGTLCLLLIRFF | 59800 |
| HVNVPTQFLSMVCPMAESIVEMVNGRMNLVGTTNYWRMIILLRPYVFQCGAAI | 44200 |

| Sequence | transcriptional activation domain activity |
| --- | --- |
| MGRELVLFIFFFFLFFFPFFFPLLLPLLLSSVRLVDIFLLKKYYLINLSLAYP | 37400 |
| ILQCIQYFANFRRDSAWMKLIVWLLFLSFPGLFGLLPHFFVYRFLDTLHVLLI | 68900 |
| VALATWVIVIAVLLPTIFLIGFIESYCWFRRMMLGRSALRLGTICWCVMSLWF | 65100 |
| APPAAAAAAAAAPAKKAKKAKKAKKAGLLQKAKKAKKAKKAKKAAAAAAAPAA | 8130 |
| DDDDDDVETHSIVHSDLLNDMDSASQRASHNASGFPNFLDTSCSSSFDDHFIF | 69100 |
| GHSTSTFNTYDEVVSRPFISLDMLHLNRGANANTHPSHNAKLESECDSSSHSD | 38700 |
| LREKGGSQQQQHQQQQQQQQQQQQQQQQQSLDTLLHHYQSLLSKSDNAIAFDD | 26800 |
| MGGYLFHLLFFSFFLFSSLLRVYYYIVDMGGVLSLLYRFFLLLVTIFVRCIIF | 57100 |
| GSKTRSTTSRDRSVRNDDKKSTTSGRRSVVSGSKEERRRRSSKKSVPAASETA | 34600 |
| EHVFLVYFFIFTMQEFAGELVSLVDVMRRIYSLDQARANRAHWWKWIFRCWLH | 58900 |
| MGNFLYGFCVIFPYNLVYIIICYFGGITQVVNAGFGYMLLLIVLWTHGQLCLS | 38600 |
| IHEPDQPLFSSFFSFFFVSFLSLIPPPLFPSSFPFLLFLPFLPPSLSLLSLIF | 35500 |
| MNRFSIRFTFVISLIDILRGIIILLYTYIHNVGFQCSLISFLFHWLTLVYFFL | 55100 |
| MRHEHGGMAFNVFFLWTFMYLCLWLRVNVLCFMSISLFLMSLFFLFFLVWLSG | 51200 |
| SDVLFVSLNLLYFWCYLIPLLATIWIRLGNADSTINDRLSVHFYSVAFLLLLF | 32800 |
| IAYPFFFIHSILLNLYYALLPYAFYLYLYIYIFLSFFSRLTVSSSFIPPLLSP | 65000 |
| MVLFLFCLITFACSRTWVMAFLLIWVSSFFLFILFFFSFFSYYAFRVLPLCYS | 46300 |
| MATAEPTKKRGRPKKVVLVEESAGNAEAVVAEVVKKTTTKKTSTKAPAAPVTT | 40300 |
| RSRRAHPRTTSSRASPSCARSSRAPPRATSSSASTTSSTGTRSRTTTPSTSPR | 18000 |
| TLKALCRFITWLSIEHIMGANLIYKLKAWLKMYRNLVIQCYIEIANLDIPTSV | 56900 |
